Source: PMC5752445, “Secretory leukocyte protease inhibitor (SLPI) as a potential target for inhibiting metastasis of triple-negative breast cancers” (Oncotarget, 2017)

Molecular target: T1, GAL4-Rb fusion protein (pBIND-Rb) (UniProt P06400 1-928)
T1 construct: source: HEK293T, transiently transfected, mammalian two-hybrid fusion
T1 sequence (looked up): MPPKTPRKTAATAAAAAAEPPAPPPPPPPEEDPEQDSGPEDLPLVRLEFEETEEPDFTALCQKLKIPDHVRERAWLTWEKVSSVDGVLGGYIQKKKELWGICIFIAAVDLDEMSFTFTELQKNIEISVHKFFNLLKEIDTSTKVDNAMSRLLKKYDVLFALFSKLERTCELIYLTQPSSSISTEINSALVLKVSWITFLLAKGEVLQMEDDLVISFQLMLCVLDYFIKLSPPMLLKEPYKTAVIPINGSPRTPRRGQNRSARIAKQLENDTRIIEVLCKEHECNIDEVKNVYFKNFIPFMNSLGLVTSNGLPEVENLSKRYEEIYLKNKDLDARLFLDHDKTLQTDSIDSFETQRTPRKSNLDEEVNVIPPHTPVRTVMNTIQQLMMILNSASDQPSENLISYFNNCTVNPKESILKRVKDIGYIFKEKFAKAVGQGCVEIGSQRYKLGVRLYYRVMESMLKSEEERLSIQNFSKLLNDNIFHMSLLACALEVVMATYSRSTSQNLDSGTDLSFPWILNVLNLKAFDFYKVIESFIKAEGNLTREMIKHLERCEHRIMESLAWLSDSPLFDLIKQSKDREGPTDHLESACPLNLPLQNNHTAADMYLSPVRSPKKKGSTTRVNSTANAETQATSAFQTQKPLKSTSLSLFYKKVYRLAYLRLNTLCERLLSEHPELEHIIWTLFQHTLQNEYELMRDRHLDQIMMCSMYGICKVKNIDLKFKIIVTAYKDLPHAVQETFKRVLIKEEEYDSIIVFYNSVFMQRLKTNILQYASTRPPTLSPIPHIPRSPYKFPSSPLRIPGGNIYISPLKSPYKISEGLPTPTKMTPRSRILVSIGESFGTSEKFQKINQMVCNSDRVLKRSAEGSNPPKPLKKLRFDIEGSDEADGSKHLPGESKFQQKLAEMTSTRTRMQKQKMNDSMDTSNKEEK
Test: two-hybrid; mammalian two-hybrid in HEK293T: pBIND (GAL4 DNA-binding domain) and pACT (VP16 activation domain) fusions with pG5luc reporter; luciferase read 48 h after transfection; negative controls pBIND and pACT vectors
Settings: partners not purified

- fold activation of the reporter over the negative controls: ~7 times
B1: VP16-SLPI fusion protein (pACT-SLPI) (natural protein, UniProt P03973 1-132, looked up)
chain: MKSSGLFPFLVLLALGTLAPWAVEGSGKSFKAGVCPPKKSAQCLRYKKPECQSDWQCPGKKRCCPDTCGIKCLDPVDTPNPTRRKPGKCPVTYGQCLMLNPPNFCEMDGQCKRDLKCCMGMCGKSCVSPVKA
notes: the legend names only pACT constructs of both; source: HEK293T, transiently transfected, mammalian two-hybrid fusion
